Results reported in patent USRE40831.

Molecular target: hepatitis B virus surface antigen, ad antigen (Chemicon Cat. No. AG 850) (hepatitis B virus)
Assay: competitive ELISA

B1: Ab19.79.5, human monoclonal antibody secreted by hybridoma cell line 19.79.5 (ECACC Accession No. 96052168) (antibody, human IgG1, V domains shown)
VH: QVQLVESGGGVVQPGGSLRLSCAPSGFVFRSYGMHWVRQTPGKGLEWVSLIWHDGSNRFYADSVKGRFTISRDNSKNTLYLQMNSLRAEDTAMYFCARERLIAAPAAFDLWGQGTLVTVSS
VL: SYVLTQPPSVSVAPGKTARISCGGNNIGTKNVHWYQQKPGQAPVLVVYADSDRPSGIPERFSGSNSGNTATLTISRVEVGDEADYYCQVWDSVSYHVVFGGGTTLTVLG
Binder B1 has a Kd of 1.3 nM.
